Columns and labels:
Test in all cases: cell-based or functional assay
[1] = target: Bacillus subtilis xylanase variant D11F/R122D/Q175Y/S179Y (modifications made to SEQ ID No. 1) (Bacillus subtilis) (UniProt P18429)
[2] = target: Bacillus subtilis xylanase variant BS3 (wildtype with D11F/R122D mutations) (Bacillus subtilis) (UniProt P18429)
[3] = target: Bacillus subtilis xylanase variant G13Y/K99Y/T104W/T110A/Y113D/N114Y/R122F/K154R/N159D/L175K (modifications made to SEQ ID No. 1) (Bacillus subtilis) (UniProt P18429)
[4] = target: Bacillus subtilis xylanase variant G13Y/T110A/Y113D/R122D/S162E/Q175L (modifications made to SEQ ID No. 1) (Bacillus subtilis) (UniProt P18429)
[5] = target: Bacillus subtilis xylanase variant G13Y/I77S/K99Y/T104W/T110A/Y113D/R122F/K154R/N159D/Q175L (modifications made to SEQ ID No. 1) (Bacillus subtilis) (UniProt P18429)
[6] = target: Bacillus subtilis xylanase variant G13Y/K99Y/T104W/T110A/Y113D/N114D/R122F/K154R/N159D/Q175L (modifications made to SEQ ID No. 1) (Bacillus subtilis) (UniProt P18429)
[7] = target: Bacillus subtilis xylanase variant G13Y/K99Y/T104W/T110A/Y113D/R122F/K154R/N159D/Q175L (modifications made to SEQ ID No. 1) (Bacillus subtilis) (UniProt P18429)
[8] = target: Bacillus subtilis xylanase variant G13Y/I77V/K99Y/T104W/T110A/Y113D/R122F/K154R/N159D/Q175L (modifications made to SEQ ID No. 1) (Bacillus subtilis) (UniProt P18429)
[9] = target: Bacillus subtilis xylanase variant D11F/R122D/Q175E (modifications made to SEQ ID No. 1) (Bacillus subtilis) (UniProt P18429)
[10] = target: Bacillus subtilis xylanase variant G13Y/T110A/Y113D/R122D/K154R/N159D/Q175L (modifications made to SEQ ID No. 1) (Bacillus subtilis) (UniProt P18429)
[11] = target: Bacillus subtilis XynA wildtype xylanase (SEQ ID No. 1), no modifications (Bacillus subtilis) (UniProt P18429)
[12] = target: Bacillus subtilis xylanase variant G13Y/Y113D/R122F/Q175L (modifications made to SEQ ID No. 1) (Bacillus subtilis) (UniProt P18429)
[13] = target: Bacillus subtilis xylanase variant G13Y/T110A/Y113D/R122D/S162D/Q175L (modifications made to SEQ ID No. 1) (Bacillus subtilis) (UniProt P18429)
[14] = target: Bacillus subtilis xylanase variant G13Y/K99Y/T104W/T110A/Y113D/N114D/R122F/K154R/N159D/L175K (modifications made to SEQ ID No. 1) (Bacillus subtilis) (UniProt P18429)
[15] = target: Bacillus subtilis xylanase variant G13Y/T110A/Y113D/R122D/W164F/Q175L (modifications made to SEQ ID No. 1) (Bacillus subtilis) (UniProt P18429)
[16] = target: Bacillus subtilis xylanase variant G12F/Y113D/R122D/Q175L (modifications made to SEQ ID No. 1) (Bacillus subtilis) (UniProt P18429)
[17] = target: Bacillus subtilis xylanase variant G13Y/K99Y/T104W/Y113D/R122D/Q175L (modifications made to SEQ ID No. 1) (Bacillus subtilis) (UniProt P18429)
[18] = target: Bacillus subtilis xylanase variant G13Y/K99Y/T104W/T110A/Y113D/N114Y/R122F/K154R/N159D/Q175L (modifications made to SEQ ID No. 1) (Bacillus subtilis) (UniProt P18429)
[19] = target: Bacillus subtilis xylanase variant D11F/R122D/Y113A (modifications made to SEQ ID No. 1) (Bacillus subtilis) (UniProt P18429)
[20] = target: Bacillus subtilis xylanase variant G13Y/I77M/K99Y/T104W/T110A/Y113D/R122F/K154R/N159D/Q175L (modifications made to SEQ ID No. 1) (Bacillus subtilis) (UniProt P18429)
[21] = target: Bacillus subtilis xylanase variant G13Y/Y113D/R122D/Q175L (modifications made to SEQ ID No. 1) (Bacillus subtilis) (UniProt P18429)
[22] = target: Bacillus subtilis xylanase variant G13Y/K99Y/T104W/T110A/Y113D/R122F/K154R/N159D/Q175K (modifications made to SEQ ID No. 1) (Bacillus subtilis) (UniProt P18429)
[23] = target: Bacillus subtilis xylanase variant G13Y/V81I/K99Y/T104W/T110A/Y113D/R122F/K154R/N159D/Q175L (modifications made to SEQ ID No. 1) (Bacillus subtilis) (UniProt P18429)
[24] = target: Bacillus subtilis xylanase variant G13Y/T110A/Y113D/R122D/Q175L (modifications made to SEQ ID No. 1) (Bacillus subtilis) (UniProt P18429)
[25] = target: Bacillus subtilis xylanase variant D11F/R122D/T110A (modifications made to SEQ ID No. 1) (Bacillus subtilis) (UniProt P18429)
[26] = target: Bacillus subtilis xylanase variant G13Y/K99Y/T104W/T110A/Y113D/I118V/R122F/K154R/N159D/Q175L (modifications made to SEQ ID No. 1) (Bacillus subtilis) (UniProt P18429)
[27] = target: Bacillus subtilis xylanase variant G13Y/K99Y/T104W/T110A/Y113D/R122F/K154R/N159D/Y166F/Q175L (modifications made to SEQ ID No. 1) (Bacillus subtilis) (UniProt P18429)
[28] = target: Bacillus subtilis xylanase variant G13Y/I77L/K99Y/T104W/T110A/Y113D/R122F/K154R/N159D/Q175L (modifications made to SEQ ID No. 1) (Bacillus subtilis) (UniProt P18429)
[29] = target: Bacillus subtilis xylanase variant G13Y/G34K/T110A/Y113D/R122D/Q175L (modifications made to SEQ ID No. 1) (Bacillus subtilis) (UniProt P18429)
[30] = target: Bacillus subtilis xylanase variant D11F/R122D/T110A/Y113A (modifications made to SEQ ID No. 1) (Bacillus subtilis) (UniProt P18429)
[31] = target: Bacillus subtilis xylanase variant G13Y/I15Y/Y113D/R122D/Q175L (modifications made to SEQ ID No. 1) (Bacillus subtilis) (UniProt P18429)
[32] = target: Bacillus subtilis xylanase variant G13F/Y113D/R122D/Q175L (modifications made to SEQ ID No. 1) (Bacillus subtilis) (UniProt P18429)
[33] = target: Bacillus subtilis xylanase variant G13Y/I77Y/K99Y/T104W/T110A/Y113D/R122F/K154R/N159D/Q175L (modifications made to SEQ ID No. 1) (Bacillus subtilis) (UniProt P18429)
[34] = target: Bacillus subtilis xylanase variant G13Y/T110A/Y113D/R122F/Q175L (modifications made to SEQ ID No. 1) (Bacillus subtilis) (UniProt P18429)
[35] = target: Bacillus subtilis xylanase variant G13Y/K99Y/T104W/T110A/Y113D/N114F/R122F/K154R/N159D/Q175L (modifications made to SEQ ID No. 1) (Bacillus subtilis) (UniProt P18429)

crude xylanase inhibitor preparation from wheat (Triticum aestivum) flour, containing both TAXI and XIP, sequence (main, form in doubt): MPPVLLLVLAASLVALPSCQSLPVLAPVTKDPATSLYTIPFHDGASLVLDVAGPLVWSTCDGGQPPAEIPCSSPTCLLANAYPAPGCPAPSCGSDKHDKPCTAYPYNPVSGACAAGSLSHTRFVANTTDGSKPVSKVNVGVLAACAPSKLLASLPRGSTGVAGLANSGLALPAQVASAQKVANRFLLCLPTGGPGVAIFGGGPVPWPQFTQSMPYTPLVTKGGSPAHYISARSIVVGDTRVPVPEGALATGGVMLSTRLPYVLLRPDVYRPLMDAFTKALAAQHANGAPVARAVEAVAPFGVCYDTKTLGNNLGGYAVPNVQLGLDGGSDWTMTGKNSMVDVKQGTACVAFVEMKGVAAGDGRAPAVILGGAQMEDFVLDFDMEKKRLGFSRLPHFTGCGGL

A % Activity @ 5.6 XIU/ml (residual xylanase activity) [1] of 100%, a % Activity @ 5.6 XIU/ml (residual xylanase activity) [2] of 100% and a % Activity @ 33.5 XIU/ml (residual xylanase activity) [2] of 100% were found for “crude xylanase inhibitor preparation from wheat (Triticum aestivum) flour, containing both TAXI and XIP” in this work. The % Activity @ 50 XIU/ml (residual xylanase activity) [2] was 95%, the % Activity @ 50 XIU/ml (residual xylanase activity) [3] was 84% and the % Activity @ 50 XIU/ml (residual xylanase activity) [4] was 44%. For the same substance, the % Activity @ 50 XIU/ml (residual xylanase activity) [5] was 20%, the % Activity @ 50 XIU/ml (residual xylanase activity) [6] was 79% and the % Activity @ 50 XIU/ml (residual xylanase activity) [7] was 64%. For the same substance, the % Activity @ 50 XIU/ml (residual xylanase activity) [8] was 45%, the % Activity @ 5.6 XIU/ml (residual xylanase activity) [9] was 100% and the % Activity @ 50 XIU/ml (residual xylanase activity) [10] was 32%. For the same substance, the % Activity @ 5.6 XIU/ml (residual xylanase activity) [11] was 29%, the % Activity @ 50 XIU/ml (residual xylanase activity) [12] was 90% and the % Activity @ 50 XIU/ml (residual xylanase activity) [13] was 40%. It also gave a % Activity @ 50 XIU/ml (residual xylanase activity) [14] of 79%, a % Activity @ 50 XIU/ml (residual xylanase activity) [15] of 29% and a % Activity @ 5.6 XIU/ml (residual xylanase activity) [16] of 100%. The % Activity @ 33.5 XIU/ml (residual xylanase activity) [17] was 80%, the % Activity @ 50 XIU/ml (residual xylanase activity) [18] was 78% and the % Activity @ 5.6 XIU/ml (residual xylanase activity) [19] was 100%. For the same substance, the % Activity @ 50 XIU/ml (residual xylanase activity) [20] was 46%, the % Activity @ 33.5 XIU/ml (residual xylanase activity) [21] was 86% and the % Activity @ 50 XIU/ml (residual xylanase activity) [22] was 72%. It also gave a % Activity @ 50 XIU/ml (residual xylanase activity) [23] of 46%, a % Activity @ 33.5 XIU/ml (residual xylanase activity) [24] of 50% and a % Activity @ 5.6 XIU/ml (residual xylanase activity) [25] of 98%. The % Activity @ 33.5 XIU/ml (residual xylanase activity) [25] was 100%, the % Activity @ 50 XIU/ml (residual xylanase activity) [26] was 79% and the % Activity @ 50 XIU/ml (residual xylanase activity) [27] was 68%. For the same substance, the % Activity @ 50 XIU/ml (residual xylanase activity) [28] was 75%, the % Activity @ 50 XIU/ml (residual xylanase activity) [29] was 97% and the % Activity @ 5.6 XIU/ml (residual xylanase activity) [30] was 99%. It also gave a % Activity @ 33.5 XIU/ml (residual xylanase activity) [31] of 76%, a % Activity @ 5.6 XIU/ml (residual xylanase activity) [32] of 100% and a % Activity @ 33.5 XIU/ml (residual xylanase activity) [32] of 90%. It also gave a % Activity @ 50 XIU/ml (residual xylanase activity) [33] of 37%, a % Activity @ 50 XIU/ml (residual xylanase activity) [34] of 65% and a % Activity @ 50 XIU/ml (residual xylanase activity) [35] of 79%.
